Data reported in publication PMC4240654, “A Single Chain Variant of Factor VIII Fc Fusion Protein Retains Normal In Vivo Efficacy but Exhibits Altered In Vitro Activity” (PLoS ONE, 2014).

Legend:
[1] = target: T1, human plasma-derived von Willebrand factor (VWF) (human, UniProt P04275 764-2813); assay: SPR; Biacore T100, 25°C; human plasma-derived VWF immobilised on flow cells, FVIII variants infused to normalized capture levels, then human α-thrombin at different concentrations applied and rates of release determined; conditions: both partners purified
T1 construct: von Willebrand factor, human, derived from plasma; Plasma VWF is a multimer; also called human VWF; source: human plasma-derived

[2] = target: T1, human plasma-derived von Willebrand …; assay: SPR; Biacore T100, 37°C; human plasma-derived VWF immobilised on flow cells, FVIII variants infused to normalized capture levels, then human α-thrombin at different concentrations applied and rates of release determined; conditions: both partners purified

B1: BDD rFVIII (recombinant B-domain-deleted factor VIII, ReFacto / Xyntha) (natural protein)
chain 1: ATRRYYLGAVELSWDYMQSDLGELPVDARFPPRVPKSFPFNTSVVYKKTLFVEFTDHLFNIAKPRPPWMGLLGPTIQAEVYDTVVITLKNMASHPVSLHAVGVSYWKASEGAEYDDQTSQREKEDDKVFPGGSHTYVWQVLKENGPMASDPLCLTYSYLSHVDLVKDLNSGLIGALLVCREGSLAKEKTQTLHKFILLFAVFDEGKSWHSETKNSLMQDRDAASARAWPKMHTVNGYVNRSLPGLIGCHRKSVYWHVIGMGTTPEVHSIFLEGHTFLVRNHRQASLEISPITFLTAQTLLMDLGQFLLFCHISSHQHDGMEAYVKVDSCPEEPQLRMKNNEEAEDYDDDLTDSEMDVVRFDDDNSPSFIQIRSVAKKHPKTWVHYIAAEEEDWDYAPLVLAPDDRSYKSQYLNNGPQRIGRKYKKVRFMAYTDETFKTREAIQHESGILGPLLYGEVGDTLLIIFKNQASRPYNIYPHGITDVRPLYSRRLPKGVKHLKDFPILPGEIFKYKWTVTVEDGPTKSDPRCLTRYYSSFVNMERDLASGLIGPLLICYKESVDQRGNQIMSDKRNVILFSVFDENRSWYLTENIQRFLPNPAGVQLEDPEFQASNIMHSINGYVFDSLQLSVCLHEVAYWYILSIGAQTDFLSVFFSGYTFKHKMVYEDTLTLFPFSGETVFMSMENPGLWILGCHNSDFRNRGMTALLKVSSCDKNTGDYYEDSYEDISAYLLSKNNAIEPRSFSQNPPVLKRHQR
chain 2: EITRTTLQSDQEEIDYDDTISVEMKKEDFDIYDEDENQSPRSFQKKTRHYFIAAVERLWDYGMSSSPHVLRNRAQSGSVPQFKKVVFQEFTDGSFTQPLYRGELNEHLGLLGPYIRAEVEDNIMVTFRNQASRPYSFYSSLISYEEDQRQGAEPRKNFVKPNETKTYFWKVQHHMAPTKDEFDCKAWAYFSDVDLEKDVHSGLIGPLLVCHTNTLNPAHGRQVTVQEFALFFTIFDETKSWYFTENMERNCRAPCNIQMEDPTFKENYRFHAINGYIMDTLPGLVMAQDQRIRWYLLSMGSNENIHSIHFSGHVFTVRKKEEYKMALYNLYPGVFETVEMLPSKAGIWRVECLIGEHLHAGMSTLFLVYSNKCQTPLGMASGHIRDFQITASGQYGQWAPKLARLHYSGSINAWSTKEPFSWIKVDLLAPMIIHGIKTQGARQKFSSLYISQFIIMYSLDGKKWQTYRGNSTGTLMVFFGNVDSSGIKHNIFNPPIIARYIRLHPTHYSIRSTLRMELMGCDLNSCSMPLGMESKAISDAQITASSYFTNMFATWSPSKARLHLQGRSNAWRPQVNNPKEWLQVDFQKTMKVTGVTTQGVKSLLTSMYVKEFLISSSQDGHQWTLFFQNGKVKVFQGNQDSFTPVVNSLDPPLLTRYLRIHPQSWVHQIALRMEVLGCEAQDLY
modifications: ReFacto/Xyntha (moroctocog alfa): S743-Q1638 fusion by convention, the same junction as printed for rFVIIIFc; mainly two-chain after cleavage at R1648, with a minor single-chain fraction …
[1]
  thrombin EC50 for release from VWF: 3.3 ± 0.3 U/mL
[2]
  thrombin EC50 for release from VWF: 4 ± 0.2 U/mL
